From the nanobody polyreactivity screen of Harvey et al. (2022)

Experiment: yeast display, Sf9 membrane polyspecificity reagent, FACS + sequencing; frameworks hold sequencing errors
Summary of the method: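 Using colony PCR, genes from sorted yeast display clones were amplified, then sequenced on MiSeq at 2 × 250 and filtered by CDR length. The clones had been stained with 10% biotinylated, detergent-solubilized Sf9 membrane reagent for 1 hour at 4 °C and sorted by FACS into low and high (top ~1%) gates on anti-HA and streptavidin fluorescence. Polyreactivity labels come from the gate of origin.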

Sequence	polyreactivity (PSR sort gate)
QVQLVESGGGLVQAGGSLRLSCAASGSTFDDNAMGWYRQAPGKERELVAAITYRGTRTYYADSVKGRFTISRDNAKNTVYLQMNSLKPEDTAVYYCAADSESVGYEYWGQGTQVTVSS	high polyreactivity
QVQLVESGGGLVQAGGSLRLSCAASGRTISYYAMVWYRPAPGKERELVAAISSSGGSTYYADSVKGRFTISRDNAKNTFYLQMNSLKPEDTAVYYCAAYQRGNRYDYWGQGTQVTVSS	high polyreactivity
QVQLVESGGGLVQAGGSLRLSCAASGGTFERNAMGWYRPAPGKERELVAAITGSGGRTYYADSVKGRFTISRDNAKNTVYLQMNSLKPEDTAVYYCAAVPWWKYNYWGQGTQVTVSS	high polyreactivity
QVQLVESGGGLVQAGGSLRLSCAASGRIFFNYAMGWYRQAPGKQRELDAAITTNGGSTYYAVSVKGRFTISRDNAKNTVYLLMNSLKPEDTAVYYCNTRRKNFVKSSQVEYWGQGTQVTVSS	high polyreactivity
QVQLGESGGGLVQAGGSLRLSCSASMGWNSQAPGKERELVAITRTTRTYYADSVKGRFTISRDNAKNTVYLQMNSLKPEDTAVYYCAAPNGPSPYWYNYWGQGTQVTVSS	low polyreactivity
QVQLVESGGGLVQAGGSLRLSCAASGRIFPFYVMGWYRQAPGKERELVATINWSGGSTYYADSVKGRFTISRDNAKNTVYLQMNSLKPEDTAVYYCNAAPSDDYDYWGQGTQVTVSS	low polyreactivity
QVQLVDSGGGLVQAGGSLRLSCAASGSIFSVNAMGWYRQAPGKERQLVAAISVRGGRTYYADSVKGRFTISRDNAKNTVYLQMNSLIPEDTAVYYCATRISTVGRYDYWGQGTQVTVSS	high polyreactivity
QVQLVESGGGLVQAGGSLRLSCAASGRIFGAYALGWSRQAPGKEMELVADIRSTGSTYYADSVKGRFTISRDNAKNTVYLQMNSLKPEDTAVYYCAAKYWKWYHYGFGYWGQGTQVTVSS	high polyreactivity
QVQLVESGGGLVQAGGSLRLTCAATGSILSRYAMGWYRLAPGKERELVATITRRGGSTFYADSVKGRFTISRDIAKNTVYLQMNSLKPEDTAVYYCAVGRLFWGQGTQVTVSS	low polyreactivity
QVQLEESGGGLVQAGGSLRLTCAASGSIFGSYTMGWYRKAPGKERELVAVISYSGGSTYYADSVKGRFSISRDNAKNTVYLQMNSLKPEDTAVYYCNAARKGVGYVHPYDFWGQGTQVTVSS	high polyreactivity
QVQLVESLGGLLHAGGSLRLSCGASGSIFGSNALGWYRQAPGKERELVAAINYSGGSTTYADSVKGRFTISRDNAKNTVYLQMTSLKPEDTAVYYCNADVLYQFDEGVWSDYWGQGTQVTVSS	low polyreactivity
QVQHVESGGGLVQAGGSLRLSCAASGSIFNLYVMGWYRQAPGKERELVATISSGGSTNYADSVKGRFTISRDNAKNTVYLQMNSLKPEDTAVYYCAKPYIVYYSMDYWGQGTQVTVSS	low polyreactivity
QVQLVESGGGLVQAGGSLRLTCAASGFIFRSYAMGWYRQAPGKERELVAVISRRGVNTHYADSVKGRFTISRDNAKNTVYLQMNSLKPEDTAVYYCAKGLTALGDYWGQGTQVTVSS	high polyreactivity
QVQLVESGGGLVQAGGSLRLSCAASGLTFVNYAMGWYRQAPGKERELVATISKTGGSTYYADSVKGRFTISRDNAKNTVYLQMNSLKPEDTAVYYCAVDAFYYKWYDYWGQGTQVTVSS	high polyreactivity
QVQLVESGGGLVQAGGSLRLSCAASGSIFAYNAMGWYRQAPGKEREFVASISSNGDSTFYADSVKGRFTISRDNAKNTVYLQMNSLKPEDTAVYYCAADVIAWDGYLWQRYDYWGQGTQVTVSS	low polyreactivity
QVQLEESGGGLVQAGGSLRLSCAASGITFAHYAMGWSRQAPGKDRELVAAISQSGGSTYYADSVKGRFTISRDNAKNTVYLQMNSLKPEDTAVYYCNKYRYPQDDYWGQGTQVTVSS	high polyreactivity
QVQLVESGGGLVQAGVSLRLSCAASGNAMGWYRQAPGKERELVAAITYGGTTTYYADSVKGRFTISRDNAKNTVYLQMNSLKPEDTAVYYCAADFVFVATPLRYDYWGQGTQVTVSS	low polyreactivity
QVHLVESGGGLVQAGGSLRLSCAASGSIFYIYAMGWYRQAPGKERELVAGITSGGGTYYADSVKGRFTISRDNAKNTVYLQMNSLKPEDTAVYYCAADYLYDYDYWGQGTQVTVSS	high polyreactivity
QVQLVESWGGLVQAGGSLRLSCAASGSIFPRNAMGWYRQAPGKERELVATISSGGSTYYADSVKGRFTISRDNAKNTVYLQMNSLKPEDTAVYYCAAEYVVRAIDVDYDYWGQGTQVTVSS	high polyreactivity
QVQLVESGGGLVQAGGSLRLSCAASGSTSGKNAMGWYRQAPGKERELVAVITYSGSRTYYADSVKGRFTISRDNAKNTVYLQMNSLKPEDTAVYYCAAVGGGVSFRGNYWGQGTQVTVSS	high polyreactivity
QVQLVESGGGLVQAGGSLRLSCAASGFIFIKYAMGWYRQAPGKERELVAGITRSGSSTYYADSVKGRFTISRDNAKNTVYLQMNSLKPEDTAVYYCAAASGSSVGRYGYWGQGTQVTVSS	high polyreactivity
QVQLVESGGGLVQAGGSLRLSCAASGSIFIAYGMVWYRQEPGKERELVAAITVSGGNTYYADSVKGRFTISRDNAKNTVYLQMNSLKPEDTAVYYCAADYWYYYGKVLYDYWGQGTQVTVSS	low polyreactivity

Sequence	polyreactivity (PSR sort gate)
QVQLVESGGGLVQAGGSLRLSCAASGFTFYGYAMGWYIQAPGKERELVAAITGSGARTYYADSVKGRFTISRDNAKNTVYLQMNSLKPEDTAVYYCNKVGVTRVGYTYRVREYDYWGQGTQVTVSS	high polyreactivity
QVQLVESVGGLVQAGGSLRLSCAASGSTFGYNAMGWYRKAPGKERELVAGITSSGGSTYYADSVKGRFTISRDNAKNTVYLQMNSLKPEDTAVYYCAKAFYRHSSPNNSEYWGQGTQVTVSS	low polyreactivity
QVQLVESGGGLVQAGGSLRLSCAASGTTFAYYAMGWYRQAPGKERELVAVISVRGGSTYYADSVKGRFTISRDNAKNTVYLQMNSLKPEDTAVYYCAADTFAGYYYWGQGTQVTVSS	high polyreactivity
QVQLVESGGGLVQAGGSLRISCAASGRIFYSNTMGWYRQAPGKEREVVARIDTGGGSTYADSVKGRFTISRDNAKKSVYLEMHSLKPADTAVYYCYKKGRWRSWGSTSLVSMDYWGQGTQVTVSS	low polyreactivity
QVQLVESGGGLVQAGGSLRLSCAASGIIFELYAMGWYRQAPGKEREFVAAINFSDGSTDYADSVKGRFTISRDNAKNTVYLQMNSLKPEDTAVYYCNADTIAYGSIIHGYWGQGTQVTVSS	low polyreactivity
QVHLVESGGGLVQAGGSLRLSCAASGSIFSYYGMGWYRQAPGKERELVAAITRSTGSTYYADSVKGRFTISRDYAKNTVYLQMNSLKPEDTAVYYCATEYVVLWEFDYWGQGTQVTVSS	low polyreactivity
QVQLVESGGGLVQAGGSLRLSCAASGFIFPYYAMGWYRQAPGKERELVATITSSGGSTYYADSVKGRFTISRDNAKNTVYLQMNSLKPEDTAVYYCAARRRYKYYGSRYDYWGQGTQVTVSS	high polyreactivity
QVQRVESGGGLVQAGGRLRLSCAASGFIFSYNAMGWYRQAPGKERELVAAISWSGVSTYYADSVMGRFTISRDNAKNTVYLQMNSLKPEDTAVYYCSAVRLRYATPVQFNPYIFGYWGQGTQVTVSS	high polyreactivity
QVQLVESGGGLVQAGGSLRLSCAASGRTFLVNAMGWYRQAPGKERELVAVITRGGSTNYADSVKGRFTISRDNAKNTVYLQMNSLKPEDTAVYYCAAEAYYGLWMDYWGQGTQVTVSS	low polyreactivity
QVQLVESGGGLVQAGRSLRLSCAASGYTFYFYAKGWSRQAPGKDRELVASMTWRGGSPYYADSVKGRFTISRDNAKNTVYLQMNSLKPEETADYYCAKHVYYIYDYWGQGTQVTVSS	low polyreactivity
QVQLVESGGGLVQAGGSLRLSCTASGIIFGTFAMGWYRQAPGKERELVAAISSSGVSTYYADSVKGRFTISRDNAKNTVYLQMNSLKPEDTAVYYCAAPLHYGYYYWGQGTQVTVSS	high polyreactivity
QVQLVESGGGLVPAGGSLRLSCASSGIIFWVNAMGWYRQAPGNERELVAAIRSDGSTKYADSVKRRFTISRDKAKNTVYVQMNSLKPVDTALYYCAKRDYSYPWFRDYYYWGQGTKVTVSS	low polyreactivity
QVQLVESGGGLVQAGGSLRLICAVSGHIFGSNAMGWYRQAPGKERELVAAIRSSGGSTYYADSVKGRFTISRDYAKNTVYLQMNSLKPEDTAVYYCAVETLTSTSLTRMDYWGQGTQVTVSS	low polyreactivity
QVHLVESGGGLVQAGCCLRLRCAASGRTYDAYAKAWYRQAPGKERELVAAISSGDITNYADSVKGRFTISRDHAKNTVYLQMNSLKPEDTAVYYCAAKPRLRFFLWHEYSSRYDYWGQGTQVTVSS	high polyreactivity
QVQLVESGGGLVQAGGSLRLSCAASGIILSDNAMGWYRQAPGKEREIVAAITGSGGSTYYADSVKGRFTISRDNAKNTVYLQMNSLKPEDTAVYYCAADGPYGYYYGHYGYWGQGTQVTVSS	low polyreactivity
QVQLVESGGGLVQAGGSLRLSCAASGITFKPYAMGWYRQAPGKERELVATITFRGGSTYYADSVKGRFTISRDNAKNTVYLQMNSLNPEDTAVYYCAAVTRRYVLSTFYYWGQGTQVTVSS	high polyreactivity
QVQLVESGGGLVQAGGSLRLTCAASGFIFSKNAMGWYRQPPGKERELVAAIDTSGSSTYYAYSVKGRFTISRDNAKNSVYLQMISLKPEDTAVYYCNRDDYFFSRFDYWGQGTQVTVTS	low polyreactivity
QVQLVESGGGLVQAGGSLRLSCAASGSIFRRYATGWYRQAPGKERQLVAAISSGGSTYADSVKGRFTISRDNAKNTVYLQMNSLKPEDTAVYYCNASGRWYYGRRYDYWGHGTQVTVSS	low polyreactivity
QVQLVESGGGLVQAGGSLRLSCAASGSTFSRNAMGWYRQAPGKERELVATISRSGRTNYADSVKGRFTISRDNAKNTVYLQMNSLKPEDTAVSYCNAGYRRSYEYWGQGTQVTVSS	low polyreactivity
QVQLVESGGGLVQAGGSLRLSCAASGNTFPLYAMGWYRQAPGKEREMVAAITSSAGSTYYADSVKGRFTISRDNAKNTVYLQMNSLKPEDTAVYYCNARRSDGKVVGYSYSHRNVEYWGQGTQVTVSS	low polyreactivity
QVQLVESGGGLVQAGGSLRLSCAASGSIFQPYGMGWYRQAPGKERELVASIRGSAGSTHYADSVKGRFTISRDNAKYTVYLQMNSLKPEDTAVDYCAARAVASHFSPSLYGYWGHGTQVTVSS	high polyreactivity
